Reference: patent US7148071B2, “Quantitative, high-throughput screening method for protein stability” (Duke University, priority 2000, dated 2006)
Marks after values point to notes of the source that are not given here. Ends that are not written are not given here.

Columns and labels:
[1] = molecular target: Trp repressor protein (Escherichia coli, UniProt P0A881)
Method: The concentration of Trp repressor in these experiments was 20 μM; and in (B) the concentration of L-tryptophan in each SUPREX buffer was 200 μM.

[2] = system: E. coli; assay type: cell-based
Method: . […] In FIG. 10B, E. coli placed in various concentrations of urea for 30 minutes were studied at 23° C. (closed circles) and 15° C. (open circles).
(closed circles) and 15° C. (open circles). 1 ml cultures of BL21-(DE3) E. coli were pelleted and resuspended in LB media containing various urea concentrations and incubated for 30 minutes at 15° C. and 23° C. The cells were then pelleted and resuspended in 1 ml of LB media, diluted 1000, plated on LB-agar plates, incubated at 37° C. overnight and the number of colonies were counted.

[3] = molecular target: P22 Arc repressor (Salmonella phage P22, UniProt P03050); assay: SUPREX analysis of P22 Arc repressor in the absence and presence of cognate DNA; assay type: binding; conditions: Arc dimer 12 μM, absence of DNA, 20 mM phosphate pH=7.4
Text: . At this concentration the stability of the Arc dimer is less than that detectable by SUPREX. Even with exchange times of several minutes, there is no transition detected in the SUPREX curve. The transition midpoint is shifted off scale to the left; […].

[4] = cited from earlier work
[5] = SUPREX analysis of P22 Arc repressor, a homo-dimeric protein; assay type: physicochemical; conditions: ΔGSUPREX adjusted to standard conditions (1 M dimer)
[6] = SUPREX (H/D exchange detected by MALDI MS) stability of unpurified proteins in crude E. coli lysates; assay type: physicochemical
[7] = conventional CD denaturation curves of purified proteins; assay type: physicochemical; conditions: purified protein, pH 8 buffer, FIG. 10A
Method: FIGS. 10A–10C depict a conventional denaturation curve by CD with purified protein in 0.15 M NaCl, 20 mM Na2HPO4, 20 mM CH3COONa, pH 8.

[8] = SUPREX analysis of RNase A, normal protocol; assay type: physicochemical
Method: Two different experimental protocols were employed for the SUPREX analysis of RNase A including one for normal analyses and one for high sensitivity analyses. H/D exchange reactions were initiated by combining 1 μL aliquots of a 100 μM solution of RNase A (fully protonated) in 20 mM sodium phosphate buffer (pH 7.4) with 9 μL volumes of 10 different deuterated exchange buffers containing 20 mM sodium phosphate (pD=7.4) and concentrations of GdmCl that varied between 0.5 and 4 M. After a specified exchange time (typically 65 minutes), a 1 μL aliquot of each exchange reaction was combined with 19 μL of a MALDI matrix solution. The MALDI matrix solution, which comprised an ice-cold, saturated, aqueous solution of SA containing 63% MeCN and 0.1% TFA (pH=3.0), effectively a quenched the H/D exchange reaction and prepared the sample for MALDI analysis. This matrix solution also included two internal mass standards, bovine ubiquitin (8566.1 Da) and hen egg lysozyme (14,303.7 Da). Subsequently, 1 μL of the quenched exchange reaction was spotted on a stainless steel MALDI plate and the solvent was evaporated under a gentle flow of air. […]
(§1) For both normal and high sensitivity analyses 10 replicate MALDI mass spectra were collected and analyzed to determine an average change in mass relative to the fully protonated sample (ΔMass) at each [GdmCl]. […]

[9] = cited from earlier work; remark: listed apart in the source
[10] = high sensitivity SUPREX analysis of RNase A (micro-concentration step); assay type: physicochemical; conditions: high sensitivity protocol
Method: The high sensitivity SUPREX protocol outlined in FIG. 11 is similar to the SUPREX protocol disclosed above, with the exception that protein samples were subjected to a micro-concentration step after H/D exchange and prior to MALDI analysis. This micro-concentration step involved the use of a batch chromatography method utilizing 10 μL C18 SUPROTIPS™ from AmiKa (Columbia, Md.). It was preferred to quench the H/D exchange reaction with TFA (0.25% v/v) prior to binding the deuterated protein samples to the SUPROTIPS™. This facilitated preservation of the deuteration state of the protein. […]
as §1
Values for ΔM0, ΔM∞ and ΔGf were obtained by fitting the ΔMass versus [GdmCl] data to equation 1 using SigmaPlot and a nonlinear least squares analysis. value of 8.47 s^−1 was used, which was calculated based on the data of Bai et al (Bai et al., (1993) Proteins 17: 75–86), using the program SPHERE (Zhang, Ph.D. Thesis, Structural Biology and Molecular Biophysics, University of Pennsylvania); and an m value of 3.1 kcal mol^−1M^−1 was used, which was previously determined in other GdmCl-induced equilibrium unfolding experiments on RNase A (Pace et al., (1990) Biochem. 29: 2564–72). […]

Molecule: N[C@@H](Cc1c[nH]c2ccccc12)C(=O)O [L-tryptophan]
- ΔGBinding [1]: -3.8 kcal/mol

Molecule: NC(N)=O [urea]
- viability of E. coli cells [2]: does not perturb the viability of the cells

Molecule: P22 Arc repressor: P22 Arc repressor, a homo-dimeric protein (MKGMSKMPQFNLRWPREVLDLVRKVAEENGRSVNSEIYQRVMESFKKEGRIGA; also: homo-dimeric protein; UniProt P03050 1-53, looked up)
- maximum ΔGSUPREX value [3]: < 4.0 kcal/mol
- previously reported ΔG value ([4]; conventional CD denaturation studies (Bowie et al., 1989)): 11.0 kcal/mol
- standard ΔG value [5]: 11.3 ± 0.2 kcal/mol

Molecule: λ6–85: monomeric form of the N-terminal domain of λ repressor, wild type
- ΔGf (kcal/mol) SUPREX [6]: -5.0 ± 0.4 kcal/mol
- stability by CD denaturation (linear extrapolation method) [7]: 6.16 ± 0.13 kcal/mol
- ΔGf (kcal/mol) CD ([4]; 25° C., purified protein, published values): −4.4 ± 0.2^b kcal/mol
- previously reported experimental m value ([4]; measured from CD denaturation curves): 2.1±0.1 kcal mol^−1 M^−1

B1: RNase A: bovine pancreatic ribonuclease A (type I-A) (protein, UniProt P61823 27-150, looked up)
Ribonuclease pancreatic: KETAAAKFERQHMDSSTSAASSSNYCNQMMKSRNLTKDRCKPVNTFVHESLADVQAVCSQKNVACKNGQTNCYQSYSTMSITDCRETGSSKYPNCAYKTTQANKHIIVACEGNPYVPVHFDASV
- ΔGf from one SUPREX curve ([8]; FIG. 12B, standard error of 0.2): -12.9 kcal/mol
- average ΔGf value and standard deviation ([8]; three replicate SUPREX analyses): -12.4 ± 0.4 kcal/mol
- m value ([9]; GdmCl-induced equilibrium unfolding (Pace et al., 1990)): 3.1 kcal mol^−1M^−1
- ΔGf by conventional fluorescence denaturation ([9]; Pace et al.): -9.24 ± 0.64 kcal/mol
- average ΔGf value and standard deviation ([10]; 3 replicate SUPREX analyses): -12.0 ± 0.5 kcal/mol
- ΔGf from one SUPREX curve ([10]; standard error of 0.2): -12.4 kcal/mol
